US20100041096

B1: His-BRCA1 (1-304) / His-BARD1 (14-189) (protein)
chain 1: MDLSALRVEEVQNVINAMQKILECPICLELIKEPVSTKCDHIFCKFCMLKLLNQKKGPSQCPLCKNDITKRSLQESTRFSQLVEELLKIICAFQLDTGLEYANSYNFAKKENNSPEHLKDEVSIIQSMGYRNRAKRLLQSEPENPSLQETSLSVQLSNLGTVRTLRTKQRIQPQKTSVYIELGSDSSEDTVNKATYCSVGDQELLQITPQGTRDEISLDSAKKAACEFSETDVTNTEHHQPSNNDLNTTEKRAAERHPEKYQGSSVSNLHVEPCGTNTHASSLQHENSSLLLTKDRMNVEKAEF
chain 2: IRSGNEPRSAPAMEPDGRGAWAHSRAALDRLEKLLRCSRCTNILREPVCLGGCEHIFCSNCVSDCIGTGCPVCYTPAWIQDLKINRQLDSMIQLCSKLRNLLHDNELSDLKEDKPRKSLFNDAGNKKNSIKMWFSPRSKKVRYVVSKASVQTQPAIKKDASAQQDSYEFVSPSPPA
B2: Myc-BRCA1(1-772)/BARD1 complex (protein)
chain 1: MDLSALRVEEVQNVINAMQKILECPICLELIKEPVSTKCDHIFCKFCMLKLLNQKKGPSQCPLCKNDITKRSLQESTRFSQLVEELLKIICAFQLDTGLEYANSYNFAKKENNSPEHLKDEVSIIQSMGYRNRAKRLLQSEPENPSLQETSLSVQLSNLGTVRTLRTKQRIQPQKTSVYIELGSDSSEDTVNKATYCSVGDQELLQITPQGTRDEISLDSAKKAACEFSETDVTNTEHHQPSNNDLNTTEKRAAERHPEKYQGSSVSNLHVEPCGTNTHASSLQHENSSLLLTKDRMNVEKAEFCNKSKQPGLARSQHNRWAGSKETCNDRRTPSTEKKVDLNADPLCERKEWNKQKLPCSENPRDTEDVPWITLNSSIQKVNEWFSRSDELLGSDDSHDGESESNAKVADVLDVLNEVDEYSGSSEKIDLLASDPHEALICKSERVHSKSVESNIEDKIFGKTYRKKASLPNLSHVTENLIIGAFVTEPQIIQERPLTNKLKRKRRPTSGLHPEDFIKKADLAVQKTPEMINQGTNQTEQNGQVMNITNSGHENKTKGDSIQNEKNPNPIESLEKESAFKTKAEPISSSISNMELELNIHNSKAPKKNRLRRKSSTRHIHALELVVSRNLSPPNCTELQIDSCSSSEEIKKKKYNQMPVRHSRNLQLMEGKEPATGAKKSNKPNEQTSKRHDSDTFPELKLTNAPGSFTKCSNTSELKEFVNPSLPREEKEEKLETVKVSNNAEDPKDLMLSGERVLQTERSVESSSISLV
chain 2: MPDNRQPRNRQPRIRSGNEPRSAPAMEPDGRGAWAHSRAALDRLEKLLRCSRCTNILREPVCLGGCEHIFCSNCVSDCIGTGCPVCYTPAWIQDLKINRQLDSMIQLCSKLRNLLHDNELSDLKEDKPRKSLFNDAGNKKNSIKMWFSPRSKKVRYVVSKASVQTQPAIKKDASAQQDSYEFVSPSPPADVSERAKKASARSGKKQKKKTLAEINQKWNLEAEKEDGEFDSKEESKQKLVSFCSQPSVISSPQINGEIDLLASGSLTESECFGSLTEVSLPLAEQIESPDTKSRNEVVTPEKVCKNYLTSKKSLPLENNGKRGHHNRLSSPISKRCRTSILSTSGDFVKQTVPSENIPLPECSSPPSCKRKVGGTSGRKNSNMSDEFISLSPGTPPSTLSSSSYRRVMSSPSAMKLLPNMAVKRNHRGETLLHIASIKGDIPSVEYLLQNGSDPNVKDHAGWTPLHEACNHGHLKVVELLLQHKALVNTTGYQNDSPLHDAAKNGHVDIVKLLLSYGASRNAVNIFGLRPVDYTDDESMKSLLLLPEKNESSSASHCSVMNTGQRRDGPLVLIGSGLSSEQQKMLSELAVILKAKKYTEFDSTVTHVVVPGDAVQSTLKCMLGILNGCWILKFEWVKACLRRKVCEQEEKYEIPEGPRRSRLNREQLLPKLFDGCYFYLWGTFKHHPKDNLIKLVTAGGGQILSRKPKPDSDVTQTINTVAYHARPDSDQRFCTQYIIYEDLCNYHPERVRQGKVWKAPSSWFIDCVMSFELLPLDS

Assays:
[1] = molecular target: His-Flag-NPM (full length, recombinant, from E. coli), P06748
His-Flag-NPM (full length, recombinant, from E. coli), P06748, sequence (P06748 whole entry): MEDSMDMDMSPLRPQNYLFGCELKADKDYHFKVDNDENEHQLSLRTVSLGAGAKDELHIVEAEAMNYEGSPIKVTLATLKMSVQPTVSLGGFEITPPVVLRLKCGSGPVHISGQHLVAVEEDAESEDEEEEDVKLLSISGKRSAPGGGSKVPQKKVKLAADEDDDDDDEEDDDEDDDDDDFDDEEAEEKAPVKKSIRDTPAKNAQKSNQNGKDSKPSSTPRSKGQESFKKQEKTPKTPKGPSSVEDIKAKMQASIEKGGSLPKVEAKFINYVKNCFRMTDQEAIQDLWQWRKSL

[2] = molecular target: endogenous NPM of 293T cells, P06748
endogenous NPM of 293T cells, P06748, sequence (P06748 whole entry): as above

| Protein | in vitro ubiquitination with purified recombinant proteins (anti-Flag immunoblot) [1] | LC/MS/MS identification of proteins conjugated with Flag-ubiquitin in the reaction of the ligase immunocomplex [2] |
| --- | --- | --- |
| B1 | two slowly floating products were detected in the gel (lane 7) |  |
| B2 |  | Of the proteins identified, nucleophosmin/B23 (NPM) exhibited the highest possibility with 17 peptides displaying a probability based Mowse score of 126 |
